Results: paper PMC11388340
Each block holds one substance with its values, some of them ahead of it.

Tests used:
[1] = molecular target: H3.3/H4 (Homo sapiens (H3.3); Xenopus laevis (H4)) (UniProt P84243+P62799); assay: competition; conditions: 20 mM HEPES pH 7.5, 150 mM NaCl, 0.5 mM TCEP, 0.001% Tween-20, 1 mg/ml BSA; 10 nM probe; temperature not stated
H3/H4 (Homo sapiens) = H3/H4 (Homo sapiens) (UniProt P84243); conditions: cited from earlier work
[2] = molecular target: HIRA-WB/UBN1-NM complex (human) (UniProt P54198); assay: AUC; sedimentation velocity of the HIRA-WB/UBN1-NM/H3.3/H4 SEC peak at three loading concentrations, 4 °C, 20 mM HEPES pH 6.95, 500 mM NaCl, 0.5 mM TCEP; global fit in Sedphat to monomer-dimer self-association: 2:2:2:2 assembly to 1:1:1:1 assemblies
[3] = molecular target: H3.3/H4 heterodimer (human | X. laevis) (UniProt P84243); assay: AUC; sedimentation equilibrium of H3.3/H4 alone, 4 °C, three loading concentrations, 15,000, 25,000 and 30,000 rpm, 20 mM HEPES pH 7.5, 100 mM NaCl, 100 mM KCl, 2 mM MgCl2, 1 mM EDTA, 0.05% Brij-35; monomer-dimer model: (H3.3/H4)2 tetramer to H3.3/H4 heterodimers
[4] = molecular target: ASF1a-C labelled with fluorescein-5-maleimide (human) (UniProt Q9Y294); assay: fluorescence polarisation; direct binding: protein titrated into 10 nM fluorescently labelled ASF1a-C probe; 20 mM HEPES pH 7.5, 150 mM NaCl, 0.5 mM TCEP, 0.001% Tween-20, 1 mg/ml BSA; one-site total binding model
[5] = molecular target: HIRA-WB/UBN1-NM/H3.3/H4 complex (human | X. laevis) (UniProt P54198); assay: AUC; sedimentation velocity of the HIRA-WB/UBN1-NM/H3.3/H4 SEC peak at three loading concentrations, 4 °C, 20 mM HEPES pH 6.95, 500 mM NaCl, 0.5 mM TCEP; global fit in Sedphat to monomer-dimer self-association: 2:2:2:2 assembly to 1:1:1:1 assemblies
[6] = molecular target: ASF1a-C labelled with Alexa Fluor 488 (human) (UniProt Q9Y294); assay: fluorescence polarisation; direct binding: protein titrated into 10 nM fluorescently labelled ASF1a-C probe; 20 mM HEPES pH 7.5, 150 mM NaCl, 0.5 mM TCEP, 0.001% Tween-20, 1 mg/ml BSA; one-site total binding model
H3.3/H4 (Homo sapiens) = H3.3/H4 (Homo sapiens) (UniProt P84243); conditions: cited from earlier work

Chain of ASF1a (Q9Y294 whole entry): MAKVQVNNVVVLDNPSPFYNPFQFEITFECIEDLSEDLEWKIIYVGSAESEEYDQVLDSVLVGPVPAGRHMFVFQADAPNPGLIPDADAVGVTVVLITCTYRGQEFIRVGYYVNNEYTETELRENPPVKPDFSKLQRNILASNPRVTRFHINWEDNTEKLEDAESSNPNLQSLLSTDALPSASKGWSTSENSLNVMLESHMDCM
Chain of ASF1a-C labelled with Alexa Fluor 488 (human) (Q9Y294 1-156): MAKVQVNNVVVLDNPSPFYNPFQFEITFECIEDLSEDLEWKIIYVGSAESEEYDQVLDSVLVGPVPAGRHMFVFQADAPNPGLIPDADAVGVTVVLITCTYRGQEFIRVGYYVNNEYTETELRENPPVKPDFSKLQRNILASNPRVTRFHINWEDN
Chain of ASF1a-C labelled with fluorescein-5-maleimide (human) (Q9Y294 1-156): as above

Substance: 60 bp dsDNA competitor
- Ki [1]: 280 nM

Substance: ASF1a (from UniProt Q9Y294)
- Kd (H3/H4 (Homo sapiens)): 2.5 nM

Substance: HIRA-WB/UBN1-NM/H3.3/H4 complex (from UniProt P54198 1-473; Q9NPG3 1-584; P84243 1-136; P62799 1-103)
- Kd [5]: 6 µM
- stoichiometry N [5]: 2

Substance: UBN1 (from UniProt Q9NPG3)
- Kd (H3.3/H4 (Homo sapiens)): 7 µM

Second part, the substance after the results:

- stoichiometry N [2]: 1
- Kd [3]: 6 µM
- stoichiometry N [3]: 2
Substance: H3.3/H4 heterodimer (from UniProt P84243 1-136; P62799 1-103) (complex)

- Kd [4]: 280 nM
Substance: H3.3/H4 heterodimer (from UniProt P84243 1-136; P62799 1-103) (complex; other documents disagree on this pair)

- Kd [6]: 1000 nM
Substance: HIRA-WB/UBN1-NM/H3.3/H4 complex (from UniProt P54198 1-473; Q9NPG3 1-584; P84243 1-136; P62799 1-103) (complex; other documents disagree on this pair)
